This note sets out measurements from article doi:10.1101/816322 (bioRxiv, 2019).

For test [1], the target named is T1, Flag-tagged Trichoplax adhaerens Bcl-2-like protein 1 (trBcl-2L1) (Trichoplax adhaerens, UniProt A0A1B1IJP0 1-215).
T1 sequence (looked up): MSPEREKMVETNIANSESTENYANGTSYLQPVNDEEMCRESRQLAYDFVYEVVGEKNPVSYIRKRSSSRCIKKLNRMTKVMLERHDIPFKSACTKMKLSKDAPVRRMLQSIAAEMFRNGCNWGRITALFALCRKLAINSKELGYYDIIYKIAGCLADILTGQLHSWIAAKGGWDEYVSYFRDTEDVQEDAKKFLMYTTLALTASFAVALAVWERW
Kind of test: FRET or BRET. In general terms: In BRET a luciferase serves as donor, and the signal depends on an acceptor being close.

In test [2] the target is T2, Flag-tagged Trichoplax adhaerens Bcl-2-like protein 2 (trBcl-2L2) (Trichoplax adhaerens, UniProt A0A1B1IJN9 1-211).
T2 sequence (looked up): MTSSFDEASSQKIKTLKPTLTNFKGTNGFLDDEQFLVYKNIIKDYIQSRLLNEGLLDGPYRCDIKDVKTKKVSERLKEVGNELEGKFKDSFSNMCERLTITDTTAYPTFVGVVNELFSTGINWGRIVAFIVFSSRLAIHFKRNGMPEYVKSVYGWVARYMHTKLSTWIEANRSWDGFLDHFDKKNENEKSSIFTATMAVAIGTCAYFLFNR
Nature of the test: FRET or BRET.

B1: EGFP-tagged Trichoplax adhaerens Bak (trBak, trBcl-2L4) (natural protein, UniProt A0A1B1IJN7 1-251, looked up)
chain: MSSTITIAESLENGENNDEQEEANTSRSQFRVTRAQVIRRQLSANPAHLPVSEQEVINETSSIFRSFVVESYQAERDGGIIAEEVRSFADQVQSSSNQTITPSSPTSEIGRHLAQLGDSYSVRFQNEFRLMITHLDINPGTAYRTFAGVARRLFRDGISWRRIVTLMAFGYQIAIDVMRSGVQGFLSRICNFIVRFISGEHIANWIARQGGWRAARYEGLASPGWPAIIGVATAAAASVFGVLWLSGYFRE
For the molecule B1, the FRET efficacy in test [1] was determined as 11.2%; in test [2] it was 5.45%.

B2: EGFP-tagged Trichoplax adhaerens Bax (trBax, trBcl-2L3) (natural protein, UniProt A0A1B1IJP1 1-241, looked up)
chain: MADFTYVLITRSISTIFSSSCLIAMAHVKSVTSTPTTTTTTTTQSCPRREENLKEIAAESKKLFLDFIADRSAKDGQDQGCISQLTREHNELQIEPTSPTIQVARTIRQIGDELDSDPHLNGLLHKLHVTSSTAYSTFRRVAMRIFQDGQFNWGRIITLFFFGYRLTIRVLSESPIVEMIISWIARFIYEICSFWIAESGGWDAITQYIQQADWKNKYTLGLIAVGVLVTAFVTWQRYNSS
Take B2: the FRET efficacy came out at 5.84% in test [1] and 1.97% in test [2].
